{"source": "paper PMC3884069", "about": "(Cellular and molecular life sciences : CMLS, 2012)", "key": {"[1]": {"molecular_target": "HLA-G6 (soluble HLA-G isoform, α1–α3 domains) (human) (UniProt P17693)", "experiment": "non-reducing SDS-PAGE and western blot"}, "[2]": {"molecular_target": "the molecule itself", "experiment": "non-reducing SDS-PAGE and western blot"}}, "data": [{"molecule": "HLA-G6 (soluble HLA-G isoform, α1–α3 domains) (from UniProt P17693-6 25-227) (natural protein)", "values": [{"measurement": "stoichiometry N", "setting": "[1]", "value": 2}]}, {"molecule": "HLA-G2 (membrane-bound HLA-G isoform, α1–α3 domains) (natural protein, human, UniProt P17693-2 25-246, looked up) MHC heavy: GSHSMRYFSAAVSRPGRGEPRFIAMGYVDDTQFVRFDSDSACPRMEPRAPWVEQEGPEYWEEETRNTKAHAQTDRMNLQTLRGYYNQSEANPPKTHVTHHPVFDYEATLRCWALGFYPAEIILTWQRDGEDQTQDVELVETRPAGDGTFQKWAAVVVPSGEEQRYTCHVQHEGLPEPLMLRWKQSSLPTIPIMGIVAGLVVLAAVVTGAAVAAVLWRKKSSD", "values": [{"measurement": "stoichiometry N", "setting": "[2]", "value": 2}]}, {"molecule": "HLA-G4 (membrane-bound HLA-G isoform, α1–α2 domains) (natural protein, human, UniProt P17693-4 25-246, looked up) MHC heavy: GSHSMRYFSAAVSRPGRGEPRFIAMGYVDDTQFVRFDSDSACPRMEPRAPWVEQEGPEYWEEETRNTKAHAQTDRMNLQTLRGYYNQSEASSHTLQWMIGCDLGSDGRLLRGYEQYAYDGKDYLALNEDLRSWTAADTAAQISKRKCEAANVAEQRRAYLEGTCVEWLHRYLENGKEMLQRAKQSSLPTIPIMGIVAGLVVLAAVVTGAAVAAVLWRKKSSD", "values": [{"measurement": "stoichiometry N", "setting": "[2]", "value": 2}]}]}
